Assay results: patent publication US20110124012A1

Assays:
[1] = target: human B-type natriuretic peptide (human); experiment: two-step sandwich chemiluminescent immunoassay ([..]); capture 8.1 on microparticles, acridinium-labeled 15C4; BNP at 288.7 pM
[2] = target: human N-terminal-pro B-type natriuretic peptide (human); experiment: two-step sandwich chemiluminescent immunoassay ([..]); capture 15F11 on microparticles, acridinium-labeled 15C4; NT-proBNP at 86.6 pM
[3] = target: human B-type natriuretic peptide (human); experiment: two-step sandwich chemiluminescent immunoassay ([..]); capture 15F11 on microparticles, acridinium-labeled 15C4; BNP at 43.8 pM
[4] = target: human N-terminal-pro B-type natriuretic peptide (human); experiment: two-step sandwich chemiluminescent immunoassay ([..]); capture 15F11 on microparticles, acridinium-labeled 15C4; NT-proBNP at 43.8 pM
[5] = target: human N-terminal-pro B-type natriuretic peptide (human); experiment: two-step sandwich chemiluminescent immunoassay ([..]); capture 15F11 on microparticles, acridinium-labeled 15C4; NT-proBNP at 0 pM (blank)
[6] = target: human B-type natriuretic peptide (human); experiment: two-step sandwich chemiluminescent immunoassay ([..]); capture 15F11 on microparticles, acridinium-labeled 15C4; BNP at 86.6 pM
[7] = target: human B-type natriuretic peptide (human); experiment: two-step sandwich chemiluminescent immunoassay ([..]); capture 8.1 on microparticles, acridinium-labeled 15C4; BNP at 0 pM (blank)
[8] = target: human B-type natriuretic peptide (human); experiment: two-step sandwich chemiluminescent immunoassay ([..]); capture 15F11 on microparticles, acridinium-labeled 15C4; BNP at 577.4 pM
[9] = target: human B-type natriuretic peptide (human); experiment: two-step sandwich chemiluminescent immunoassay ([..]); capture 8.1 on microparticles, acridinium-labeled 15C4; BNP at 43.8 pM
[10] = target: human pro B-type natriuretic peptide (human); experiment: two-step sandwich chemiluminescent immunoassay ([..]); capture 8.1 on microparticles, acridinium-labeled 15C4; proBNP at 0 pM (blank)
Chain of human pro B-type natriuretic peptide (human) (chain, as listed by the source): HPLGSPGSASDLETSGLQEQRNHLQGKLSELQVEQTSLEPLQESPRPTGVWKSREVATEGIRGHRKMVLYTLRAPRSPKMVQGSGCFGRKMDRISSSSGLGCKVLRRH

[11] = target: human B-type natriuretic peptide (human); experiment: two-step sandwich chemiluminescent immunoassay ([..]); capture 8.1 on microparticles, acridinium-labeled 15C4; BNP at 86.6 pM
[12] = target: human pro B-type natriuretic peptide (human); experiment: two-step sandwich chemiluminescent immunoassay ([..]); capture 8.1 on microparticles, acridinium-labeled 15C4; proBNP at 86.6 pM
[13] = target: human B-type natriuretic peptide (human); experiment: two-step sandwich chemiluminescent immunoassay ([..]); capture 15F11 on microparticles, acridinium-labeled 15C4; BNP at 0 pM (blank)
[14] = target: human B-type natriuretic peptide (human); experiment: two-step sandwich chemiluminescent immunoassay ([..]); capture 8.1 on microparticles, acridinium-labeled 15C4; BNP at 577.4 pM
[15] = target: human pro B-type natriuretic peptide (human); experiment: two-step sandwich chemiluminescent immunoassay ([..]); capture 8.1 on microparticles, acridinium-labeled 15C4; proBNP at 577.4 pM
[16] = target: human B-type natriuretic peptide (human); experiment: two-step sandwich chemiluminescent immunoassay ([..]); capture 15F11 on microparticles, acridinium-labeled 15C4; BNP at 288.7 pM
[17] = target: human N-terminal-pro B-type natriuretic peptide (human); experiment: two-step sandwich chemiluminescent immunoassay ([..]); capture 15F11 on microparticles, acridinium-labeled 15C4; NT-proBNP at 577.4 pM
[18] = target: human pro B-type natriuretic peptide (human); experiment: two-step sandwich chemiluminescent immunoassay ([..]); capture 8.1 on microparticles, acridinium-labeled 15C4; proBNP at 43.8 pM
[19] = target: human pro B-type natriuretic peptide (human); experiment: two-step sandwich chemiluminescent immunoassay ([..]); capture 8.1 on microparticles, acridinium-labeled 15C4; proBNP at 288.7 pM
[20] = target: human N-terminal-pro B-type natriuretic peptide (human); experiment: two-step sandwich chemiluminescent immunoassay ([..]); capture 15F11 on microparticles, acridinium-labeled 15C4; NT-proBNP at 288.7 pM

Chain of human B-type natriuretic peptide (human) (peptide, as listed by the source): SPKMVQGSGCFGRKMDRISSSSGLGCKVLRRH
Chain of human N-terminal-pro B-type natriuretic peptide (human) (chain, as listed by the source): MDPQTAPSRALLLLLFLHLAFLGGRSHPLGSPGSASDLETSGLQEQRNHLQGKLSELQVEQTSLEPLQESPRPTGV

For monoclonal antibody 15C4, the mean rlus [1] was 732 RLU, the mean rlus [2] was 62700 RLU and the mean rlus [3] was 1040 RLU. For the same substance, the mean rlus [4] was 22400 RLU, the mean rlus [5] was 1140 RLU and the mean rlus [6] was 1080 RLU. It also gave a mean rlus [7] of 745 RLU, a mean rlus [8] of 1140 RLU and a mean rlus [9] of 567 RLU. For the same substance, the mean rlus [10] was 659 RLU, the mean rlus [11] was 713 RLU and the mean rlus [12] was 12000 RLU. It also gave a mean rlus [13] of 1200 RLU, a mean rlus [14] of 701 RLU and a mean rlus [15] of 116000 RLU. It also gave a mean rlus [16] of 1130 RLU, a mean rlus [17] of 658000 RLU and a mean rlus [18] of 5480 RLU. It also gave a mean rlus [19] of 43000 RLU and a mean rlus [20] of 317000 RLU.
